Data taken from the DeepSol protein solubility set.

Assay: soluble on expression in E. coli; label from the status in PepcDB or PDB records
With “GPGSMSTMAASRSDTPAPVHEMSMERLRREYVSLKSTSYSLTVEESHLIRKIETLREESVRAVLNAEMKEEQVSNQLFRRLDGAEREVQRYQALLKEEESEAESLSGRIKEMRSQQTEVENALEERQEYLLMNLQRKLLDMARKKTAVEQELMAERQKYLDVLVTRLNMLRGRGVGSSTESSVTIHSQPSPAEANTVPVAKHLDVPLPTTAAPHISTPLLRTGVPLGDNHGMLPAEKPLREDAHTDAGLPLPFVLSPAISAQKKPKDGVIVNASRGNTSSTSGRLSASTTPLSADLTPRSSHSSETHHAVVALERKLNQLLLEQAAAMQRTSATEKQCAVLTAKLHAVQEATFLDRARASKMKEELEKARARLSEVKARDRSGIPFSPLDDTSVMSGSNASFDNSSPLVLSSLSLRERTRELLSSVPQPNANERPC” the “soluble on expression in E. coli” value was “not soluble”. With “GPGSMTPTRAQLAAFVDHTLLKPEATAADVAALVTEAAELGVYAVCVSPPMVPAAVQAGAGVRVASVAGFPSGKHVSAVKAHEAALAVASGAAEIDMVIDVGAALAGDLDGVRADIAAVRGAVGGAVLKVIVESSALLALADEHTLVRVCRAAEDAGADFVKTSTGFHPSGGASVRAVALMAEAVGGRLGVKASGGIRTAADALAMLDAGATRLGLSGTRAVLDGLG” the “soluble on expression in E. coli” value was “soluble”. With “GPGSMTRELHRLYVTEPAPPPSLYILTGAGTKAFCAGGDVIGLTTNNPPGCGREFFYWEYQVDYKASIIPAGQVCLWDGYVLGGGAGLSIGSAYRVASEKACFAMPEVAIGMFPDVGASWFLPRLSVPGLGLYMGLTGHRLRGADLVHLGLATHFVPSAKMGELEQALVSMSDAGDVEAVLDKYTTPTTQLPPCTIAHSISSLASHFDITADLTISSILDACREHAQTDPLAKAAADLMPSFSPTAMTLALELLKRGA” the “soluble on expression in E. coli” value was “not soluble”. In the case of “GPGSMTSPKIKAVFVDMDGTLFNSDHLISPRTAKVIHALEERGVAFVVATGRPFPDVFGNLAQTELRPDFIITSNGARVHDAQHNILFACDMDAESVCRLFQLSPHLSEDGVVDPSVQARRILCNVNCRDRWLTNECIPEVRAAFHPSFIYERVDPMVQTAKTLEGTHSMWIRGAHADLVCVQKYVDRELSGEIRCAFALPHILDCFRKDVNKGAAMEKVCKHLRIDLRETIAFGDGMNDIRMLTAAGQGFVMANAAEMVKQAAPELPVIQSNNEEGVAWKLEELLAADAFVG”, the “soluble on expression in E. coli” value is reported as “soluble”. In the case of “GPGSMTTSASLFKKFTLENVAQIASSSHKEQKEVREELAEQYPALEAYWEEILPKKSDIFIIRCQGQVHCITLVSSQPEVLFFNHHGGPYLPHLKLLHKYPFMLTRHQVDIGGCRYVISGANVMCQGLTSAGGIVADGTEEGEVVAVYVEGKEHAVAVGTMLMSSDEIKEKNKGPCIENIHHLGDGLWMNPVLSASHISV”, the “soluble on expression in E. coli” value is reported as “soluble”. In the case of “GPGSMVIKKDVPFKYTLHQGLCERDPVLSTPLIITAGVDGNELQYRLDMQVPSHSAIEGMEVTNVEFLFTSSKCNAGKSNQHLSKCSMLVYLYMQLLDGVGRPTSPPFPISCCNTHTGKGIFSCVKLPLQVNQQCRFYLVRRSCTDSASQSAMELKGVRFTSKLYLLYRSPLNSAKVRSQMDVLTGGDLKFTADTEVMTSTGAKRSREELERFGSENSDRKGKKAKRERETATTMDRASDDEPPNLIYAFVSGGDNES”, the “soluble on expression in E. coli” value is reported as “soluble”. With “GPGSMVKPRSQGPRRPAVKQADNKSVGDRSKTAVTEKMKPSRLVGGTTGAKKERREGKKVSTGKANKVAATSASTVVLKEGGKPSGPSHGTGTNSSRRGKRSPQAQTRRAAARVASRVIESNSRITAATNRMNTAREELALFDQVTQMPAFVADPFTAIDEHLSTAMDFLQPQTPDVGRVKRE” the “soluble on expression in E. coli” value was “soluble”. For “GPGSMVRCSRPAFRQVCRAWGTRVSYTHMLMAESFVKSPHARHAEFARYEGENRLVAQLAAKSGPAAAQAALLLRPYCDGIDLNCGCPQRWAMKEGIGAALLDQPERVADMVRSIRNAMPDGSTAPMIVGNGGEYSSCTSAVPPFLPCVVKMRIKDDLRRSVDFARQCEAAGVSWLTVHGRTPTCHSSTAVQFEAVKLIRENLSVPVVLNGGVTDVSTAMEAALRTGCGGLMSANGLLDNPAMFYCGASRAAMEAEMSFVTSCWGRPPRTCDPVSPPAETAAPDVFSEVFSPVRPVSFLWAPDRSNAEAVLLRYTVADMWQAAVTPREVISDFMRAAMRTDLVVPTTVQQVLRMARLYVSPAERNHLALLRSNLSVLNALQEIDVYVESGRIACE”, the “soluble on expression in E. coli” value was “not soluble”. For “GPGSSAHAPEGKRATKTELGSTSLYVRVGQLTNLRRHPDADRLYVEDMVLGDETRTIVSGLVESYAIEELEGTQCLVVCNMKPKSLMGVTSQGMVLCAKRDTEVKLIRPPAGAKPGDRILFGASYDAAIAAAAPPEPISSNKMSEVLSHLHTNADSVLCWKDEPARHPSGAAVAIADMANCPVS”, the “soluble on expression in E. coli” value was “soluble”. With “GPGSSLMFSRPPSKLSGAPTREDLDEIIAEEVREWVAKMVGVKHNADVWSMPNFVDALRSGVLLHVLLQKMESPPVSDEDLKLPKRTTGFFVRDNVATFLTTAKSRYDLVDAQLFTVSDLVDGKNDRQVVTCLMSIARIAYSAGAIK” the “soluble on expression in E. coli” value was “not soluble”. For “GPGYQDPKGRLYGTIGIQKRFYVSIDKIPEHVINAFVATEDRNFWHHFGIDPVAIVRAAIVNYRAGRIVQGGSTITQQLAKNLFLTRERTLERKIKEALLAIKIERTFDKKKIMELYLNQIYLGSGAYGVEAAAQVYFGKHVWELSLDEAALLAALPKAPAKYNPFYHPERALQRRNLVLKRMLEEGYITPEQYEEAVNK”, the “soluble on expression in E. coli” value was “soluble”. In the case of “GPHMADLFGDDIEEIPDTDFDFEGNLALFDKAAVFEEIDTYERR”, the “soluble on expression in E. coli” value is reported as “soluble”. For “GPISEFPVDFHYGVRVDVTLLSKIRRVNEHIKSATKTGVVQVHGSACTPTLSVLSSVGTAGVLGMRIKNALTPLVGHTEGSGDVSFSFRNTSVGSGFTHTRELFGANVLDAGIAFYRKGEACDTGAQPQFVRTTISYGDNLTSTVHKSVVDQKGILPFHDRMEAGGRTTRLMLCGKTGAFLLKWLRQQKTKEDQTVTVSVSETLSIVTFSLGGVSKIIDFKPETKPVSGWDGLKGKKSVDVGVVHTDALSRVSLESLIAALRMCKVPGWFTPGLIWHSNEILEVEGVPTGCQSGDVKLSVLLLEVNRSV”, the “soluble on expression in E. coli” value was “soluble”. For “GPLGSMKLLVVDDSSTMRRIIKNTLSRLGYEDVLEAEHGVEAWEKLDANADTKVLITDWNMPEMNGLDLVKKVRSDSRFKEIPIIMITTEGGKAEVITALKAGVNNYIVKPFTPQVLKEKLEVVLGTND”, the “soluble on expression in E. coli” value was “soluble”. In the case of “GPLGSSIMKILLIGDSGVGKSCLLVRFVEDKFNPSFITTIGIDFKIKTVDINGKKVKLQLWDTAGQERFRTITTAYYRGAMGIILVYDVTDERTFTNIKQWFKTVNEHANDEAQLLLVGNKSDMETRVVTADQGEALAKELGIPFIESSAKNDDNVNEIFFTLAKLIQEKIDSN”, the “soluble on expression in E. coli” value is reported as “soluble”. For “GPLQVSNARLLFPISMPEDEGVVRLVVNNTDESDLQVAVVSLPSFVSLDDRAFRLQAREPRELNLSLAVPRNMPPGMKDEPLVLEVTSPETGKKAVDSVMVSLPLVDNFPALTAAQTGVMELSTYLDMGQLDGETTKAAIEIRNVGAGPLRLHSVTTRNPALTAVPDRTEIKPGGSTLLRIAVDPQVMKAEGWQSIAADISIICNDPQAPLRRIKVKAEL”, the “soluble on expression in E. coli” value was “soluble”. For “GPPTRRSDFRVLVSGLPPSGSWQDLKDHMREAGDVCYADVQKDGMGMVEYLRKEDMEYALRKLDDTKFRSHEGETSYIRVYPERS”, the “soluble on expression in E. coli” value was “soluble”. In the case of “GPVDNNNNNGLKNSTEPIYAKVNKKKTGQVASPEEPIYTQVAKKVNAKIDRLNQIASGLGGVGQAAGFPLKRHDKVDDLSKVGLSASPEPIYATIDDLGGPFPLKRHDKVDDLSKVGRSRNQELA”, the “soluble on expression in E. coli” value is reported as “soluble”. For “GPYATEVELREMVDIAQEHGIVEIEERRMIQSVFDLASTTVRQVMVPRPEMIWIESGKTAGQATALCVRSGHSRIPVIGENVDDIIGIVYLKDLVQKTYYATDGGKSVLVDEVMREATFVPDSKSLDALLQEMQEDHKHIAILVDEYGGVAGLISIEDILEEIVGEIADEYDAREVAPIEKIGDRTYRVVSRL”, the “soluble on expression in E. coli” value was “not soluble”. With “GPYLVIVEQPKQRGFRFRYGCEGPSHGGLPGASSEKGRKTYPTVKICNYEGPAKIEVDLVTHSDPPRAHAHSLVGKQCSELGICAVSVGPKDMTAQFNNLGVLHVTKKNMMGTMIQKLQRQRLRSRPQGLTEAEQRELEQEAKELKKVMDLSIVRLRFSAFLRDSDGSFSLPLKPVISQPIHDSKSPGASNLKISRMDKTAGSVRGGDEVYLLCDKVQKDDIEVRFYEDDENGWQAFGDFSPTDVHKQYAIVFRTPPYHKMKIERPVTVFLQLKRKRGGDVSDSKQFTYYPLV” the “soluble on expression in E. coli” value was “soluble”. For “GQANHPTAAVVTEKQQMLEQHLQDVRKRVQDLEQKMKVVENLQDDFDFNYKTLKSQGDMQDLNGNNQSVTRQKMQQLEQMLTALDQMRRSIVSELAGLLSAMEYVQKTLTDEELADWKRRQQIACIGGPPNICLDRLENWITSLAESQLQTRQQIKKLEELQQKVSYKGDPIVQHRPMLEERIVELFRNLMKSAFVVERQPCMPMHPDRPLVIKTGVQFTTKVRLLVKFPELNYQLKIKVCIDKDSGDVAALRGSRKFNILGTNTKVMNMEESNNGSLSAEFKHLTLREQRCGNGGRANCDASLIVTEELHLITFETEVYHQGLKIDLETHSLPVVVISNICQMPNAWASILWYNMLTNNPKNVNFFTKPPIGTWDQVAEVLSWQFSSTTKRGLSIEQLTTLAEKLLGPGVNYSGCQITWAKFCKENMAGKGFSFWVWLDNIIDLVKKYILALWNEGYIMGFISKERERAILSTKPPGTFLLRFSESSKEGGVTFTWVEKDISGKTQIQSVEPYTKQQLNNMSFAEIIMGYKIMDATNILVSPLVYLYPDIPKEEAFGKYCR”, the “soluble on expression in E. coli” value was “soluble”. In the case of “GQYKIQIFEKGDFSGQMYETTEDCPSIMEQFHMREIHSCKVLEGVWIFYELPNYRGRQYLLDKKEYRKPIDWGAASPAVQSFRRIVE”, the “soluble on expression in E. coli” value is reported as “soluble”. For “GSACELPECQEDAGNKVCSLQCNNHACGWDGGDCSLNFNDPWKNCTQSLQCWKYFSDGHCDSQCNSAGCLFDGFDCQRAEGQCNPLYDQYCKDHFSDGHCDQGCNSAECEWDGLDCAEHVPERLAAGTLVVVVLMPPEQLRNSSFHFLRELSRVLHTNVVFKRDAHGQQMIFPYYGDVRGSIVYLEIDNRQCVQASSQCFQSATDVAAFLGALASLGSLNIPYKIEAVQSETVEPANSHHHHHH”, the “soluble on expression in E. coli” value was “soluble”. In the case of “GSAGDVTNDLSHVRKIIVACDAGMGSSAMGAGVLRKKIQDAGLSQISVTNSAINNLPPDVDLVITHRDLTERAMRQVPQAQHISLTNFLDSGLYTSLTERLVAAQRHTENEVKVKDSLKDSFDDS”, the “soluble on expression in E. coli” value is reported as “soluble”. In the case of “GSEFAIDPNEPTYCLCNQVSYGEMIGCDNEQCPIEWFHFSCVSLTYKPKGKWYCPKCRGDNE”, the “soluble on expression in E. coli” value is reported as “soluble”. With “GSFTSSGCQEANYGALLRELCLTQFQVDMEAVGETLWCDWGRTIRSYRELADCTWHMAEKLGCFWPNAEVDRFFLAVHGRYFRSCPISGRAVR” the “soluble on expression in E. coli” value was “soluble”. For “GSGLSAQDISQPLQNSFIHTGHGDSDPRHCWGFPDRIDELYLGN”, the “soluble on expression in E. coli” value was “soluble”. For “GSHMAAAKQDVKVFSEDGTSKVVEILADMTARDLCQLLVYKSHSVDDNSWTLVEHHPHLGLERCLEDHELVVQVESTMASESKFLFRKNYAKYEFFKNPMNFFPEQMVTWSQQSNGSQTQLLQNFLNSSSSPEIQGFLHVKELGKKSWKKLYVCLRRSGLYCSTKGTSAAPRHLQLLADLEDSNIFSLIAGRKQYNAPTDHGLCIKPNKVRNETKELRLLCAEDEQTRTSWMTAFRLLKYGMLLYQNYRIPQQRKA”, the “soluble on expression in E. coli” value was “soluble”. With “GSHMAASATAAAVAAEVISVHSLEQWTMQIEEANTAKKLVVIDFTASWCGPSRIMAPVFADLAKKFPNAVFLKVDVDELKPIAEQFSVEAMPTFLFMKEGDVKDRVVGAIKEELTAKVGLHAAAQ” the “soluble on expression in E. coli” value was “soluble”.
